Measured values from article PMC6555819, “Comprehensive study of nuclear receptor DNA binding provides a revised framework for understanding receptor specificity”.
Numbering of substitutions follows the chain as printed.

B1: NRC3_random_hg19_57_o1 (dsDNA)
DNA 1: GCTAGCTGAGACTACATGCCACCATGCCTGGCTAATGCGATTGACAGCGTAGAATGAAGG
DNA 2: CCTTCATTCTACGCTGTCAATCGCATTAGCCAGGCATGGTGGCATGTAGTCTCAGCTAGC
B2: NRC3_random_hg19_145_o1 (dsDNA)
DNA 1: GCGCCCAGTAGTTTGAGACCAGCCTGGACAACATGGGCGATTGACAGCGTAGAATGAAGG
DNA 2: CCTTCATTCTACGCTGTCAATCGCCCATGTTGTCCAGGCTGGTCTCAAACTACTGGGCGC
B3: NRC3_wobSeed34_DR1_G14T_o1 (dsDNA)
DNA 1: GCATCGAAAGGTCTAAGGTGAGTATACCCACCCGAAGCGATTGACAGCGTAGAATGAAGG
DNA 2: CCTTCATTCTACGCTGTCAATCGCTTCGGGTGGGTATACTCACCTTAGACCTTTCGATGC
B4: NRC3_wobSeed34_DR1_G14C_o1 (dsDNA)
DNA 1: B3 DNA 1 with T14C
DNA 2: B3 DNA 2 with A47G
B5: NRC3_wobSeed141_DR5_C13G_o1 (dsDNA)
DNA 1: GCAGTCAAAGTTGAGGACGAGGTAACGTAAAGCACGGCGATTGACAGCGTAGAATGAAGG
DNA 2: CCTTCATTCTACGCTGTCAATCGCCGTGCTTTACGTTACCTCGTCCTCAACTTTGACTGC
B6: NRC3_wobSeed136_DR5_A14G_o1 (dsDNA)
DNA 1: GCTAGCCTAGGTCGTTCAGGGGCCAGTATAGAAAGCGCGATTGACAGCGTAGAATGAAGG
DNA 2: CCTTCATTCTACGCTGTCAATCGCGCTTTCTATACTGGCCCCTGAACGACCTAGGCTAGC
B7: NRC3_random_hg19_497_o1 (dsDNA)
DNA 1: GCGGGTTTAGAGATGATTTGCTGTGACAGTGTTGAGGCGATTGACAGCGTAGAATGAAGG
DNA 2: CCTTCATTCTACGCTGTCAATCGCCTCAACACTGTCACAGCAAATCATCTCTAAACCCGC
B8: NRC3_wobSeed40_DR1_C13T_o1 (dsDNA)
DNA 1: GCTAGCCTAGGTTATGGGCCAGTATACCACGCGAACGCGATTGACAGCGTAGAATGAAGG
DNA 2: CCTTCATTCTACGCTGTCAATCGCGTTCGCGTGGTATACTGGCCCATAACCTAGGCTAGC
B9: NRC3_random_hg19_368_o1 (dsDNA)
DNA 1: GCTAAGAAACTCAGTCAACATGATATCTATGGCTAAGCGATTGACAGCGTAGAATGAAGG
DNA 2: CCTTCATTCTACGCTGTCAATCGCTTAGCCATAGATATCATGTTGACTGAGTTTCTTAGC
B10: NRC3_random_hg19_431_o1 (dsDNA)
DNA 1: GCAGCCATATGCAAATGAGTACATCCTGTGTGATTCGCGATTGACAGCGTAGAATGAAGG
DNA 2: CCTTCATTCTACGCTGTCAATCGCGAATCACACAGGATGTACTCATTTGCATATGGCTGC
B11: NRC3_random_hg19_234_o1 (dsDNA)
DNA 1: GCTAACTGGCACCTTTGGGAACTACATGTTTCCTGTGCGATTGACAGCGTAGAATGAAGG
DNA 2: CCTTCATTCTACGCTGTCAATCGCACAGGAAACATGTAGTTCCCAAAGGTGCCAGTTAGC
B12: NRC3_random_hg19_129_o1 (dsDNA)
DNA 1: GCGAAGTTTAGAAACTTGCCCTAAGTCACCTAACTAGCGATTGACAGCGTAGAATGAAGG
DNA 2: CCTTCATTCTACGCTGTCAATCGCTAGTTAGGTGACTTAGGGCAAGTTTCTAAACTTCGC
B13: NRC3_wobSeed77_DR3_A14T_o1 (dsDNA)
DNA 1: GCACTTACGGGTCTACGAGGTTATAGCACGCGTATAGCGATTGACAGCGTAGAATGAAGG
DNA 2: CCTTCATTCTACGCTGTCAATCGCTATACGCGTGCTATAACCTCGTAGACCCGTAAGTGC
B14: NRC3_wobSeed77_DR3_G11C_o1 (dsDNA)
DNA 1: B13 DNA 1 with G11C, T14A
DNA 2: B13 DNA 2 with A47T, C50G
B15: NRC3_wobSeed117_DR4_G10C_o1 (dsDNA)
DNA 1: GCCGTCAAACTTCAACTAAGGTAACGTAAAGCACGCGCGATTGACAGCGTAGAATGAAGG
DNA 2: CCTTCATTCTACGCTGTCAATCGCGCGTGCTTTACGTTACCTTAGTTGAAGTTTGACGGC
B16: NRC3_wobSeed29_DR1_A14C_o1 (dsDNA)
DNA 1: GCGCTTACGGGTCCAAGGTTATAGCATGAATAGAATGCGATTGACAGCGTAGAATGAAGG
DNA 2: CCTTCATTCTACGCTGTCAATCGCATTCTATTCATGCTATAACCTTGGACCCGTAAGCGC
B17: NRC3_random_hg19_163_o1 (dsDNA)
DNA 1: GCCAGTGAGCCGAGATCATGCCACTGCACTCCAGCCGCGATTGACAGCGTAGAATGAAGG
DNA 2: CCTTCATTCTACGCTGTCAATCGCGGCTGGAGTGCAGTGGCATGATCTCGGCTCACTGGC
B18: NRC3_random_hg19_203_o1 (dsDNA)
DNA 1: GCGATGTAACAATGCAGGGTGGTCTTGGTCTTTGGCGCGATTGACAGCGTAGAATGAAGG
DNA 2: CCTTCATTCTACGCTGTCAATCGCGCCAAAGACCAAGACCACCCTGCATTGTTACATCGC
B19: NRC3_wobSeed66_DR2_C13G_o1 (dsDNA)
DNA 1: GCAATACAGGGTGACTAGGCCAGAGTAGGTACGAATGCGATTGACAGCGTAGAATGAAGG
DNA 2: CCTTCATTCTACGCTGTCAATCGCATTCGTACCTACTCTGGCCTAGTCACCCTGTATTGC
B20: NRC3_wobSeed113_DR4_A24C_o1 (dsDNA)
DNA 1: GCATATGTAGGTTAGCTGGGGTCCTTCAGACTAGGCGCGATTGACAGCGTAGAATGAAGG
DNA 2: CCTTCATTCTACGCTGTCAATCGCGCCTAGTCTGAAGGACCCCAGCTAACCTACATATGC
B21: NRC3_random_hg19_256_o1 (dsDNA)
DNA 1: GCAGGAGAAACCCACGCTGGTGTCATCACAGGTTCAGCGATTGACAGCGTAGAATGAAGG
DNA 2: CCTTCATTCTACGCTGTCAATCGCTGAACCTGTGATGACACCAGCGTGGGTTTCTCCTGC
B22: NRC3_random_hg19_442_o1 (dsDNA)
DNA 1: GCTACGGAGTGCTGATCAGTCAGGTTGGAGATGGAAGCGATTGACAGCGTAGAATGAAGG
DNA 2: CCTTCATTCTACGCTGTCAATCGCTTCCATCTCCAACCTGACTGATCAGCACTCCGTAGC
B23: NRC3_wobSeed104_DR4_G20A_o1 (dsDNA)
DNA 1: GCTCTTGTAGATCAATAGAAGTTAAGAAAGTGCGCTGCGATTGACAGCGTAGAATGAAGG
DNA 2: CCTTCATTCTACGCTGTCAATCGCAGCGCACTTTCTTAACTTCTATTGATCTACAAGAGC
B24: NRC3_wobSeed74_DR3_T21A_o1 (dsDNA)
DNA 1: GCTCTAGTTGGTCACGGAGGACACACACGACGGGTAGCGATTGACAGCGTAGAATGAAGG
DNA 2: CCTTCATTCTACGCTGTCAATCGCTACCCGTCGTGTGTGTCCTCCGTGACCAACTAGAGC
B25: NRC3_wobSeed74_DR3_A23C_o1 (dsDNA)
DNA 1: B24 DNA 1 with A21T, A23C
DNA 2: B24 DNA 2 with T38G, T40A
B26: NRC3_wobSeed42_DR1_A6T_o1 (dsDNA)
DNA 1: GCTATTCAGGGTCAAAGGCCAGAGTACGAATGTCGAGCGATTGACAGCGTAGAATGAAGG
DNA 2: CCTTCATTCTACGCTGTCAATCGCTCGACATTCGTACTCTGGCCTTTGACCCTGAATAGC
B27: NRC3_wobSeed116_DR4_G11A_o1 (dsDNA)
DNA 1: GCAGAATGAGATTACCAAAGATCAGGGAAACGCTTGGCGATTGACAGCGTAGAATGAAGG
DNA 2: CCTTCATTCTACGCTGTCAATCGCCAAGCGTTTCCCTGATCTTTGGTAATCTCATTCTGC
B28: NRC3_wobSeed100_DR4_T22C_o1 (dsDNA)
DNA 1: GCCCTACTGGGCCACGAAAGGCCATTGATTCAGTGAGCGATTGACAGCGTAGAATGAAGG
DNA 2: CCTTCATTCTACGCTGTCAATCGCTCACTGAATCAATGGCCTTTCGTGGCCCAGTAGGGC
B29: NRC3_random_hg19_104_o1 (dsDNA)
DNA 1: GCTGTAATCACGGTGTGTGAACTACTCATATCGAGTGCGATTGACAGCGTAGAATGAAGG
DNA 2: CCTTCATTCTACGCTGTCAATCGCACTCGATATGAGTAGTTCACACACCGTGATTACAGC
B30: NRC3_wobSeed28_DR1_C20G_o1 (dsDNA)
DNA 1: GCCCTACTGGGCCAAAGGTGATTGATTCCAATGCTCGCGATTGACAGCGTAGAATGAAGG
DNA 2: CCTTCATTCTACGCTGTCAATCGCGAGCATTGGAATCAATCACCTTTGGCCCAGTAGGGC
B31: NRC3_random_hg19_430_o1 (dsDNA)
DNA 1: GCGAAGGACCTTTAGATCCTGAGACAGAACTTAGGCGCGATTGACAGCGTAGAATGAAGG
DNA 2: CCTTCATTCTACGCTGTCAATCGCGCCTAAGTTCTGTCTCAGGATCTAAAGGTCCTTCGC

target: LXRa:RXRa (Homo sapiens, UniProt Q13133;P19793 full;full); test: no ligand; PBM; 270 nM : 90 nM RXRa; PBS pH 7.4, 2% milk, 0.02% Triton X-100, 1 mM DTT, BSA, 0.4 mg/ml salmon testes DNA; details: tags: His kept;His cleaved; copies: 1;1; label: surface-attached array probe
In short: (§1)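 For binding z-scores, the reference was random background probes on custom Agilent 4×180K protein-binding microarrays. These arrays were incubated 1 h with ligand-free nuclear receptor dimers in PBS pH 7.4, 2% milk, 0.02% Triton X-100, 1 mM DTT, 0.2 mg/mL BSA and 0.4 mg/ml salmon testes DNA. Fluorescence was scanned after antibody detection of each partner (one per run) and regression-normalized.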

LXRa:RXRa, sequence (Q13133 whole entry, chain 1 of 2): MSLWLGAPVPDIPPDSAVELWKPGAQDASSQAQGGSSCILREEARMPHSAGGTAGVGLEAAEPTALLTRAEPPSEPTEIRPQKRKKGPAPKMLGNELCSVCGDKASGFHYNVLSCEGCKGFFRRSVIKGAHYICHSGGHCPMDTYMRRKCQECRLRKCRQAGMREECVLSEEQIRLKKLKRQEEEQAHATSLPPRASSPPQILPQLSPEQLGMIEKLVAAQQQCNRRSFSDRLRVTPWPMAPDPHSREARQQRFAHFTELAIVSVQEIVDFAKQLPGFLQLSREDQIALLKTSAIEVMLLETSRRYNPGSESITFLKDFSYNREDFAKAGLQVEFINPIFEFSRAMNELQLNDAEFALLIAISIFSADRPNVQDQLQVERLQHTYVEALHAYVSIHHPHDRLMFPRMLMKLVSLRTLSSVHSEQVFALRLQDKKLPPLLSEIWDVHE
LXRa:RXRa, sequence (P19793 whole entry, chain 2 of 2): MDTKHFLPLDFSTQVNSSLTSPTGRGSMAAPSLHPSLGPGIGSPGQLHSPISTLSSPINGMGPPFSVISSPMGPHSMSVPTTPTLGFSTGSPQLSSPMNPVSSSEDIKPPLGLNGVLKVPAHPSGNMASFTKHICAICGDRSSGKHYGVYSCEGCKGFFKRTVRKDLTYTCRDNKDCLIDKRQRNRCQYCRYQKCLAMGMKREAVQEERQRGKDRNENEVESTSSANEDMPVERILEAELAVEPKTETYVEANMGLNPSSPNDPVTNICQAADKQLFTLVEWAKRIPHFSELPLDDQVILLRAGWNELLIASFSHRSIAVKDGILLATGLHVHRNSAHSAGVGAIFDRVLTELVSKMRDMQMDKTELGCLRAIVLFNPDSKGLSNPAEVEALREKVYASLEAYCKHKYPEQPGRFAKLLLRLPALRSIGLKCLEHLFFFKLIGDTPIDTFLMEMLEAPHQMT

In order of rising binding signal:
1. B22  -0.9 PBM z-score against 500 random probes
2. B2  -0.81 PBM z-score against 500 random probes
3. B1  -0.61 PBM z-score against 500 random probes
4. B31  -0.59 PBM z-score against 500 random probes
5. B18  -0.49 PBM z-score against 500 random probes
6. B17  -0.46 PBM z-score against 500 random probes
7. B10  -0.4 PBM z-score against 500 random probes
8. B11  -0.32 PBM z-score against 500 random probes
9. B12  -0.25 PBM z-score against 500 random probes
10. B21  -0.16 PBM z-score against 500 random probes
11. B27  -0.15 PBM z-score against 500 random probes
12. B5  -0.07 PBM z-score against 500 random probes
13. B28  -0.05 PBM z-score against 500 random probes
14. B29  -0.03 PBM z-score against 500 random probes
15. B8  0.05 PBM z-score against 500 random probes
16. B30  0.13 PBM z-score against 500 random probes
17. B6  0.19 PBM z-score against 500 random probes
18. B19  0.22 PBM z-score against 500 random probes
19. B9  0.24 PBM z-score against 500 random probes
20. B4  0.27 PBM z-score against 500 random probes
21. B15  0.31 PBM z-score against 500 random probes
22. B14  0.33 PBM z-score against 500 random probes
23. B3  0.34 PBM z-score against 500 random probes
24. B20  0.37 PBM z-score against 500 random probes
25. B7  0.38 PBM z-score against 500 random probes
26. B25  0.41 PBM z-score against 500 random probes
27. B16  0.43 PBM z-score against 500 random probes
28. B24  0.43 PBM z-score against 500 random probes
29. B23  0.44 PBM z-score against 500 random probes
30. B13  0.49 PBM z-score against 500 random probes
31. B26  7.1 PBM z-score against 500 random probes

target: PPARa:RXRa (Homo sapiens, UniProt Q07869;P19793 full;full); test: as above; details: tags: GST kept;His cleaved; copies: 1;1; label: surface-attached array probe
In short: as §1

PPARa:RXRa, sequence (Q07869 whole entry, chain 1 of 2): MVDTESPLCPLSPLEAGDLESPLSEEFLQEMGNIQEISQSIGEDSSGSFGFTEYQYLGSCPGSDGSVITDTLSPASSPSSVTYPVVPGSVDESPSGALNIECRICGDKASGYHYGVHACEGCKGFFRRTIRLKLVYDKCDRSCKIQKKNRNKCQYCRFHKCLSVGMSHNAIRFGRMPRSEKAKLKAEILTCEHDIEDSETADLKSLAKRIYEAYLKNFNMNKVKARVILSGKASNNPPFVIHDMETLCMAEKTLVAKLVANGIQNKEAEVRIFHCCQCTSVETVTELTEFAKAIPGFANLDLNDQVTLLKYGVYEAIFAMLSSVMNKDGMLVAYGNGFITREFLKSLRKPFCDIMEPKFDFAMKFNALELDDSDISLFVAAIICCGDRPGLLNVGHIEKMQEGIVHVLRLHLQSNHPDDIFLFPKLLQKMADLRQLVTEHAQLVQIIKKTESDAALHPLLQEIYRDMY
PPARa:RXRa, sequence (P19793 whole entry, chain 2 of 2): as the sequence (P19793 whole entry, chain 2 of 2) above

With B26 the binding signal was 6.67 PBM z-score against 500 random probes.
